# Reference: patent US20110053865A1 (published 2011)
# Like-named read-outs stand apart in the source and are kept apart here.
# B1: R&D mIL23 (ligand)
# chain 1: VPRSSSPDWAQCQQLSRNLCMLAWNAHAPAGHMNLLREEEDEETKNNVPRIQCEDGCDPQGLKDNSQFCLQRIRQGLAFYKHLLDSDIFKGEPALLPDSPMEQLHTSLLGLSQLLQPEDHPRETQQMPSLSSSQQWQRPLLRSKILRSLQAFLAIAARVFAHGAATLTEPLVPTA
# chain 2: MWELEKDVYVVEVDWTPDAPGETVNLTCDTPEEDDITWTSDQRHGVIGSGKTLTITVKEFLDAGQYTCHKGGETLSHSHLLLHKKENGIWSTEILKNFKNKTFLKCEAPNYSGRFTCSWLVQRNMDLKFNIKSSSSSPDSRAVTCGMASLSAEKVTLDQRDYEKYSVSCQEDVTCPTAEETLPIELALEARQQNKYENYSTSFFIRDIIKPDPPKNLQMKPLKNSQVEVSWEYPDSWSTPHSYFSLKFFVRIQRKKEKMKETEEGCNQKGAFLVEKTSTEVQCKGGNVCVQAQDRYYNSSCSKWACVPCRVRS
# B2: R&D hIL23 (ligand)
# chain 1: RAVPGGSSPAWTQCQQLSQKLCTLAWSAHPLVGHMDLREEGDEETTNDVPHIQCGDGCDPQGLRDNSQFCLQRIHQGLIFYEKLLGSDIFTGEPSLLPDSPVGQLHASLLGLSQLLQPEGHHWETQQIPSLSPSQPWQRLLLRFKILRSLQAFVAVAARVFAHGAATLSP
# chain 2: IWELKKDVYVVELDWYPDAPGEMVVLTCDTPEEDGITWTLDQSSEVLGSGKTLTIQVKEFGDAGQYTCHKGGEVLSHSLLLLHKKEDGIWSTDILKDQKEPKNKTFLRCEAKNYSGRFTCWWLTTISTDLTFSVKSSRGSSDPQGVTCGAATLSAERVRGDNKEYEYSVECQEDSACPAAEESLPIEVMVDAVHKLKYENYTSSFFIRDIIKPDPPKNLQLKPLKNSRQVEVSWEYPDTWSTPHSYFSLTFCVQVQGKSKREKKDRVFTDKTSATVICRKNASISVRAQDRYYSSSWSEWASVPCS
# B3: hIL12 (ligand)
# chain 1: RNLPVATPDPGMFPCLHHSQNLLRAVSNMLQKARQTLEFYPCTSEEIDHEDITKDKTSTVEACLPLELTKNESCLNSRETSFITNGSCLASRKTSFMMALCLSSIYEDLKMYQVEFKTMNAKLLMDPKRQIFLDQNMLAVIDELMQALNFNSETVPQKSSLEEPDFYKTKIKLCILLHAFRIRAVTIDRVMSYLNAS
# chain 2: B2 chain 2
# Assays:
# 124H5 [1] = assay: Biacore
# 124B5 [2] = assay: Biacore
# 124D11 [3] = assay: Biacore
# 124H2 [4] = assay: Biacore
# 124G4 [5] = assay: Biacore
# 124D4 [6] = assay: Biacore
# 4D2 = assay: Biacore; R&D hIL23
# 124F9 = assay: Biacore; R&D hIL23
# 12E11 = assay: Biacore; R&D hIL23
# 124H5 [7] = assay: Biacore; R&D hIL23
# 124B6 = assay: Biacore; R&D hIL23
# 4A11 = assay: Biacore; R&D hIL23
# 124G2 = assay: Biacore; R&D hIL23
# 124B5 [8] = assay: Biacore; R&D hIL23
# 12F11 = assay: Biacore; R&D hIL23
# 124E3 = assay: Biacore; R&D hIL23
# 124F10 = assay: Biacore; R&D hIL23
# 124E5 = assay: Biacore; R&D hIL23
# 124D11 [9] = assay: Biacore; R&D hIL23
# 124D2 = assay: Biacore; R&D hIL23
# 12A4 = assay: Biacore; R&D hIL23
# 124H2 [10] = assay: Biacore; R&D hIL23
# 4E11 = assay: Biacore; R&D hIL23
# 124C5 = assay: Biacore; R&D hIL23
# 12C10 = assay: Biacore; R&D hIL23
# 12G7 = assay: Biacore; R&D hIL23
# 12D11 = assay: Biacore; R&D hIL23
# 124H1 = assay: Biacore; R&D hIL23
# 4E3 = assay: Biacore; R&D hIL23
# 4E7 = assay: Biacore; R&D hIL23
# 12H2 = assay: Biacore; R&D hIL23
# 12D2 = assay: Biacore; R&D hIL23
# 12A11 = assay: Biacore; R&D hIL23
# 124G4 [11] = assay: Biacore; R&D hIL23
# 124F7 = assay: Biacore; R&D hIL23
# 124C3 = assay: Biacore; R&D hIL23
# 124D4 [12] = assay: Biacore; R&D hIL23
# 3H5 = assay: Biacore
# 3D4 = assay: Biacore
# 3E1 = assay: Biacore
# 1G8 = assay: Biacore
# 121C1 = 84D3 = assay: Biacore
# 80C10 [13] = assay: Biacore
# 3A7 = assay: Biacore
# 3A10 = assay: Biacore
# 3A11 = assay: Biacore
# 3G9 = assay: Biacore
# 4F3 = assay: Biacore
# 3C7 = assay: Biacore
# 121C1 = assay: Biacore
# 80C10 [14] = assay: Biacore; remark: listed apart in the source
binder,measurement,setting,value
B1,koff,124H5 [1],0.00304 s⁻¹
same,koff,124B5 [2],0.00105 s⁻¹
same,koff,124D11 [3],0.00744 s⁻¹
same,koff,124H2 [4],0.00291 s⁻¹
same,koff,124G4 [5],0.00329 s⁻¹
same,koff,124D4 [6],0.0029 s⁻¹
B2,koff,4D2,0.000111 s⁻¹
same,koff,124F9,0.00031 s⁻¹
same,koff,12E11,0.000237 s⁻¹
same,koff,124H5 [7],0.000246 s⁻¹
same,koff,124B6,0.000249 s⁻¹
same,koff,4A11,0.00032 s⁻¹
same,koff,124G2,6.55e-05 s⁻¹
same,koff,124B5 [8],0.00022 s⁻¹
same,koff,12F11,0.000235 s⁻¹
same,koff,124E3,0.000261 s⁻¹
same,koff,124F10,0.000169 s⁻¹
same,koff,124E5,0.000187 s⁻¹
same,koff,124D11 [9],0.000259 s⁻¹
same,koff,124D2,9.08e-05 s⁻¹
same,koff,12A4,0.000295 s⁻¹
same,koff,124H2 [10],0.000116 s⁻¹
same,koff,4E11,0.000126 s⁻¹
same,koff,124C5,0.000357 s⁻¹
same,koff,12C10,0.000289 s⁻¹
same,koff,12G7,0.000242 s⁻¹
same,koff,12D11,0.000121 s⁻¹
same,koff,124H1,0.000158 s⁻¹
same,koff,4E3,0.000164 s⁻¹
same,koff,4E7,0.000101 s⁻¹
same,koff,12H2,0.000126 s⁻¹
same,koff,12D2,0.000101 s⁻¹
same,koff,12A11,0.000134 s⁻¹
same,koff,124G4 [11],0.000146 s⁻¹
same,koff,124F7,0.000382 s⁻¹
same,koff,124C3,0.000123 s⁻¹
same,koff,124D4 [12],0.000348 s⁻¹
B3,koff,3H5,0.00375 s⁻¹
same,koff,3D4,0.00714 s⁻¹
same,koff,3E1,0.00956 s⁻¹
same,koff,1G8,0.000779 s⁻¹
same,koff,121C1 = 84D3,0.0371 s⁻¹
same,koff,80C10 [13],0.000578 s⁻¹
same,koff,3A7,0.00588 s⁻¹
same,koff,3A10,0.00353 s⁻¹
same,koff,3A11,0.00636 s⁻¹
same,koff,3G9,0.00768 s⁻¹
same,koff,4F3,0.00255 s⁻¹
same,koff,3C7,0.0119 s⁻¹
same,koff,121C1,0.0371 s⁻¹
same,koff,80C10 [14],0.000578 s⁻¹
